Data from patent US20230287120A1 (ALLOGENE THERAPEUTICS, published 2023).
Blank lines part the entries; values can stand above or below the binder they belong to.

Assays:
[1] = molecular target: T1, Flag tagged recombinant DLL3 (Adipogen) (Homo sapiens (Human), UniProt Q9NYJ7 27-492); test: flow cytometry, primary T cells with the CAR, Flag tagged recombinant DLL3, PE anti-Flag
T1 construct: Bought reagent; also called Flag-DLL3
T1 sequence: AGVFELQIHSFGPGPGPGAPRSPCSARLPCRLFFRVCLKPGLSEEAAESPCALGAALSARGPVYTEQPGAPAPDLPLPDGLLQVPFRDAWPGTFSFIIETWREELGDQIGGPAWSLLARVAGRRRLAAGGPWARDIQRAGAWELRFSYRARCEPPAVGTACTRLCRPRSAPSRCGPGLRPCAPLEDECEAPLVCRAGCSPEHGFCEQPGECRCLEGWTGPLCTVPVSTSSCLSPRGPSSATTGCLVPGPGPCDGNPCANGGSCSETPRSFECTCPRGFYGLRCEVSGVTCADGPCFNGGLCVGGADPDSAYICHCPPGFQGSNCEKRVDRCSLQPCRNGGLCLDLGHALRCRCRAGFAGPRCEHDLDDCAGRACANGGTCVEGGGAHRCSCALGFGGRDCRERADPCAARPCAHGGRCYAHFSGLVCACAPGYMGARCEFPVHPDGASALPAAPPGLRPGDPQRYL

[2] = molecular target: T2, full length human DLL3 with N-terminal HA tag, expressed on CHO cells (human, UniProt Q9NYJ7 27-618); test: flow cytometry on CHO cells with full length and truncated human DLL3; column Binds to DLL3 Domain
T2 construct: also called Human DLL3 complete ECD
T2 sequence: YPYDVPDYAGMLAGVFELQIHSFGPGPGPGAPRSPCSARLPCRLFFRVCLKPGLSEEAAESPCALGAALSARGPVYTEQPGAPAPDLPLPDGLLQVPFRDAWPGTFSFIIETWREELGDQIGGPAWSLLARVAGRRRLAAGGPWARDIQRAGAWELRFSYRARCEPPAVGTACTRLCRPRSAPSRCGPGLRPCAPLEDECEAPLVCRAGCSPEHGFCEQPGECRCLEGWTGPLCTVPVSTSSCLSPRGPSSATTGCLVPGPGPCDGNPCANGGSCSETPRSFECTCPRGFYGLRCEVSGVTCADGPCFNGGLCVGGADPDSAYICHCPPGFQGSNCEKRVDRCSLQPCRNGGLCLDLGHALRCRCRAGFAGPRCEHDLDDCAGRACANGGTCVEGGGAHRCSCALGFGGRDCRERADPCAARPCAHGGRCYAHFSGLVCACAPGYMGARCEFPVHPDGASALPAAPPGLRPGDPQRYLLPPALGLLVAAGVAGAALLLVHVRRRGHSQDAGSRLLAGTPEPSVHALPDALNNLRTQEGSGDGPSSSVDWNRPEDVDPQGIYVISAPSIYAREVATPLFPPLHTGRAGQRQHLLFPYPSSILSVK

[3] = molecular target: T3, human DLL3 on cells (endogenous on SHP-77, DMS 273, DMS 454; full length human DLL3 by lentivirus on HEK-293T) (human, UniProt Q9NYJ7 27-618); test: flow cytometry on DMS 273, DMS 454 and SHP-77 cells, 2 ug/ml antibody, PE anti-mouse IgG
T3 construct: whole, on cells
T3 sequence (looked up): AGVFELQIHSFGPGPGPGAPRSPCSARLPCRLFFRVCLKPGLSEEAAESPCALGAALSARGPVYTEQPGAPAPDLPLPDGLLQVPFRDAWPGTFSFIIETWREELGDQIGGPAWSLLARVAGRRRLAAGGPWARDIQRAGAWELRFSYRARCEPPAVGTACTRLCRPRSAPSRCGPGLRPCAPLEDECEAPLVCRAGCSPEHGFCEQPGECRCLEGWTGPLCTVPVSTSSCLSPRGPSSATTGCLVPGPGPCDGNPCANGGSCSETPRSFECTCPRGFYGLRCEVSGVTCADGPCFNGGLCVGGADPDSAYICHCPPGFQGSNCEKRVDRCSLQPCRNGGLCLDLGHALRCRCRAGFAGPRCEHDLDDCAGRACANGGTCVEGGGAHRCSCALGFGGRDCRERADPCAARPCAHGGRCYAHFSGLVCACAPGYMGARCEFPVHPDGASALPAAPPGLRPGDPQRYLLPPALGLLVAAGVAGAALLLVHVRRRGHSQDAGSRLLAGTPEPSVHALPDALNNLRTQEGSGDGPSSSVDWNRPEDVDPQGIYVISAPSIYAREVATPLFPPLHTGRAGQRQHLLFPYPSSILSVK

B1: 4H8 R2S (other)
CAR: GGGGSCPYSNPSLCGGGGSCPYSNPSLCGGGGSQVQLQQSGPGLVKPSQTLSLTCAISGDSVSSNSATWNWIRQSPSRGLEWLGRTYYRSKWYDDYAVSVKSRITINPDTSKNHLSLHLNSVTPEDTAVYYCAGGGLVGAPDGFDVWGQGTMVTVSSGGGGSGGGGSGGGGSGGGGSQSVLTQPPSASGTPGQRVTISCSGSSSNIGSDPVNWYQQLPGTAPKLLIYSNNQRPSGVPDRFSGSKSGTSASLAISGLQSEDEADYYCSAWDDSLNGYVFGTGTKVTVLTTTPAPRPPTPAPTIASQPLSLRPEACRPAAGGAVHTRGLDFACDIYIWAPLAGTCGVLLLSLVITKRGRKKLLYIFKQPFMRPVQTTQEEDGCSCRFPEEEEGGCELRVKFSRSADAPAYQQGQNQLYNELNLGRREEYDVLDKRRGRDPEMGGKPRRKNPQEGLYNELQKDKMAEAYSEIGMKGERRRGKGHDGLYQGLSTATKDTYDALHMQALPPR
notes: member of group m45; also called 4H8-R2S anti-DLL3 CAR with safety switch, on primary T cells
- Rec-DLL3+ gate, percent of live CD3+ cells [1]: 58.6%

B3: 4H8 RSR (other)
CAR: GGGGSCPYSNPSLCGGGGSQVQLQQSGPGLVKPSQTLSLTCAISGDSVSSNSATWNWIRQSPSRGLEWLGRTYYRSKWYDDYAVSVKSRITINPDTSKNHLSLHLNSVTPEDTAVYYCAGGGLVGAPDGFDVWGQGTMVTVSSGGGGSGGGGSGGGGSGGGGSQSVLTQPPSASGTPGQRVTISCSGSSSNIGSDPVNWYQQLPGTAPKLLIYSNNQRPSGVPDRFSGSKSGTSASLAISGLQSEDEADYYCSAWDDSLNGYVFGTGTKVTVLGGGGSCPYSNPSLCGGGGSTTTPAPRPPTPAPTIASQPLSLRPEACRPAAGGAVHTRGLDFACDIYIWAPLAGTCGVLLLSLVITKRGRKKLLYIFKQPFMRPVQTTQEEDGCSCRFPEEEEGGCELRVKFSRSADAPAYQQGQNQLYNELNLGRREEYDVLDKRRGRDPEMGGKPRRKNPQEGLYNELQKDKMAEAYSEIGMKGERRRGKGHDGLYQGLSTATKDTYDALHMQALPPR
notes: member of group m45; also called 4H8-RSR anti-DLL3 CAR with safety switch, on primary T cells
- Rec-DLL3+ gate, percent of live CD3+ cells [1]: 51.9%

B4: 10G1-K RSR (other)
CAR: GGGGSCPYSNPSLCGGGGSEVQLLESGGGLVQPGGSLRLSCAASGFTFSSYAMNWVRQAPGKGLEWVSTISGSGGSTYYADSVKGRFTISRDNSKNTLYLQMNSLRAEDTAVFYCAIDPEYYDILTGGDYWGQGTLVTVSSGGGGSGGGGSGGGGGSGGGGSDIQMTQSPSAMSASVGDRVTITCRASQGISNYLAWFQQKPGKVPKRLIYAASSLQSGVPSRFSGSGSGTEFTLTISSLQPEDFATYFCLQHDSFPLTFGGGTKVEIKGGGGSCPYSNPSLCGGGGSTTTPAPRPPTPAPTIASQPLSLRPEACRPAAGGAVHTRGLDFACDIYIWAPLAGTCGVLLLSLVITKRGRKKLLYIFKQPFMRPVQTTQEEDGCSCRFPEEEEGGCELRVKFSRSADAPAYQQGQNQLYNELNLGRREEYDVLDKRRGRDPEMGGKPRRKNPQEGLYNELQKDKMAEAYSEIGMKGERRRGKGHDGLYQGLSTATKDTYDALHMQALPPR
notes: member of group m46; also called 10G1-K RSR anti-DLL3 CAR with safety switch, on primary T cells
- Rec-DLL3+ gate, percent of live CD3+ cells [1]: 42.7%

B6: 2G1 RSR (other)
CAR: GGGGSCPYSNPSLCGGGGSQLQLQESGPGLVKPSETLSLTCTVSGGSISSSSYYWGWIRQPPGKGLEWIGSIYYSGNIYHNPSLKSRVSISVDTSKNQFSLRLSSVTAADTAVYYCAREIIVGATHFDYWGQGTLVTVSSGGGGSGGGGSGGGGSGGGGSAIQMTQSPSSLSASVGDRVTITCRASQGIRNDLGWYQQKPGKAPELLIYAASSLQSGVPSRFSGSGSGTDFTLTISSLQPEDFATYYCLQDYNYPLTFGPGTKVDIKGGGGSCPYSNPSLCGGGGSTTTPAPRPPTPAPTIASQPLSLRPEACRPAAGGAVHTRGLDFACDIYIWAPLAGTCGVLLLSLVITKRGRKKLLYIFKQPFMRPVQTTQEEDGCSCRFPEEEEGGCELRVKFSRSADAPAYQQGQNQLYNELNLGRREEYDVLDKRRGRDPEMGGKPRRKNPQEGLYNELQKDKMAEAYSEIGMKGERRRGKGHDGLYQGLSTATKDTYDALHMQALPPR
notes: member of group m44; also called 2G1-RSR anti-DLL3 CAR with safety switch, on primary T cells
- Rec-DLL3+ gate, percent of live CD3+ cells [1]: 60.7%

B7: 2G1 R2S (other)
CAR: GGGGSCPYSNPSLCGGGGSCPYSNPSLCGGGGSQLQLQESGPGLVKPSETLSLTCTVSGGSISSSSYYWGWIRQPPGKGLEWIGSIYYSGNIYHNPSLKSRVSISVDTSKNQFSLRLSSVTAADTAVYYCAREIIVGATHFDYWGQGTLVTVSSGGGGSGGGGSGGGGSGGGGSAIQMTQSPSSLSASVGDRVTITCRASQGIRNDLGWYQQKPGKAPELLIYAASSLQSGVPSRFSGSGSGTDFTLTISSLQPEDFATYYCLQDYNYPLTFGPGTKVDIKTTTPAPRPPTPAPTIASQPLSLRPEACRPAAGGAVHTRGLDFACDIYIWAPLAGTCGVLLLSLVITKRGRKKLLYIFKQPFMRPVQTTQEEDGCSCRFPEEEEGGCELRVKFSRSADAPAYQQGQNQLYNELNLGRREEYDVLDKRRGRDPEMGGKPRRKNPQEGLYNELQKDKMAEAYSEIGMKGERRRGKGHDGLYQGLSTATKDTYDALHMQALPPR
notes: member of group m44; also called 2G1-R2S anti-DLL3 CAR with safety switch, on primary T cells
- Rec-DLL3+ gate, percent of live CD3+ cells [1]: 66%

B9: 10G1-K R2S (other)
CAR: GGGGSCPYSNPSLCGGGGSCPYSNPSLCGGGGSEVQLLESGGGLVQPGGSLRLSCAASGFTFSSYAMNWVRQAPGKGLEWVSTISGSGGSTYYADSVKGRFTISRDNSKNTLYLQMNSLRAEDTAVFYCAIDPEYYDILTGGDYWGQGTLVTVSSGGGGSGGGGSGGGGGSGGGGSDIQMTQSPSAMSASVGDRVTITCRASQGISNYLAWFQQKPGKVPKRLIYAASSLQSGVPSRFSGSGSGTEFTLTISSLQPEDFATYFCLQHDSFPLTFGGGTKVEIKTTTPAPRPPTPAPTIASQPLSLRPEACRPAAGGAVHTRGLDFACDIYIWAPLAGTCGVLLLSLVITKRGRKKLLYIFKQPFMRPVQTTQEEDGCSCRFPEEEEGGCELRVKFSRSADAPAYQQGQNQLYNELNLGRREEYDVLDKRRGRDPEMGGKPRRKNPQEGLYNELQKDKMAEAYSEIGMKGERRRGKGHDGLYQGLSTATKDTYDALHMQALPPR
notes: member of group m46; also called 10G1-K-R2S anti-DLL3 CAR with safety switch, on primary T cells
- Rec-DLL3+ gate, percent of live CD3+ cells [1]: 39.3%

Continued, values first:

- binding result [2]: binds
- binding result [3]: binds
B2: anti-DLL3 antibody 10G1-K (antibody, V domains shown)
VH: EVQLLESGGGLVQPGGSLRLSCAASGFTFSSYAMNWVRQAPGKGLEWVSTISGSGGSTYYADSVKGRFTISRDNSKNTLYLQMNSLRAEDTAVFYCAIDPEYYDILTGGDYWGQGTLVTVSS
VL: DIQMTQSPSAMSASVGDRVTITCRASQGISNYLAWFQQKPGKVPKRLIYAASSLQSGVPSRFSGSGSGTEFTLTISSLQPEDFATYFCLQHDSFPLTFGGGTKVEIK

- binding result [2]: binds
- binding result [3]: binds
B5: anti-DLL3 antibody 4E6 (antibody, V domains shown)
VH: QVQLQESGPGLVKPSETLSLTCTVSSDSISSYYWSWIRQPPGKGLEWISYIYYSGISNYNPSLKSRVSISVDTSKNQFSLRLSSVTAADTAVYYCARISVAGFFFDNWGQGTLVTVSS
VL: EIMLTQSPDTLSLSPGERATLSCRASQSVSSSYLAWYQQKPGQAPRLLIYGASSRAAGVPDRFSGSGSGTDFTLTISRLAPEDFVVYYCQQYGISPLTFGGGTKVEIK

- binding result [3]: binds
B8: 3E4 (antibody, V domains shown)
VH: QVQLQQWGAGLLKPSETLSLTCAVYGGSFSGYYWSWIRQPPGKGLEWIGEIIHSGSSNYNPSLKSRVSISVDTSKNQFSLKLSSVTAADTAVYYCSRGEYGSGSRFDYWGQGTLVTVSS
VL: AIQMTQSPSSLSASVGDRVAITCRASQGIRDDLGWYQQKPGKAPKLLIYAASSLQSGVPSRFSGSRSDTDFTLTISSLQPEDFATYYCLQDYDYPLTFGGGTKVEIK
notes: also called anti-DLL3 antibody 3E4 (purified, mouse IgG2A backbone)
